Laboratory results as given in patent US20030073236A1 (published 2003).

Experiments:
[1] = target: T1, SV40 Large T Antigen (T-Ag) (SV40, UniProt P03070 1-708); experiment: co-immunoprecipitation from metabolically labeled AT-2 cardiomyocytes
T1 construct: also called SV40 T-Ag; recombinant SV40 T-Ag

[2] = target: T1, SV40 Large T Antigen (T-Ag); experiment: immune precipitation / Western blot, NIH-3T3 cells co-transfected with CMV-p193myc and CMV-T-Ag

Row | Binder | binding result [1] | binding result [2]
1 | p193 (mouse p193, full length) (other, 35S-methionine labelled in the immune precipitation experiments, also called in vitro translated p193) MVGELRYREFRVPLGPGLHAYPDELIRQRVGHNGHPEYQIRWLILRRGDDGDRDSTVDCKAEHILLWMSDDEIYANCHKMLGENGQVIAPSRESTEAGALDKSVLGEMETDVKSLIQRALRQLEECVGTVPPAPLLHTVHVLSAYASIEPLTGIFKDRRVVNLLMHMLSSPDYQIRWSAGRMIQALSSHDAGTRTQILLSLSQQEAIEKHLDFDSRCALLALFAQATLTEHPMSFEGVQLPQVPGRLLFSLVKRYLHVTFLLDRLNGDAGDQGAQNNFSPEELNVGRGRLELEFSMAMGTLISELVQAMRWDGASSRPESSSSSTFQPRPAQFRPYTQRFRRSRRFRPRASFASFNTYALYVRDTLRPGMRVRMLENYEEIAAGDEGQFRQSNDGVPPAQVLWDSTGHTYWVHWHMLEILGFEEDIEDVIDIEELQELGANGALSIVPPSQRWKPITQLFAEPYVVPEEEDREESENLTQAEWWELLFFIRQLSEAERLHIVDLLQDHLEEERVLDYDMLPELTVPVDLAQDLLLSLPQQLEDSALRDLFSCSVYRKYGPEVLVGHLSYPFVPGAQPNLFGANEESEAKDPPLQSASPALQRLVESLGPEGEVLVELEQALGSEAPQETEVKSCLLQLQEQPQPFLALMRSLDTSASNKTLHLTVLRILMQLVNFPEALLLPWHEAMDACVTCLRSPNTDREVLQELIFFLHRLTTTSRDYAVILNQHGARDAISKVLEKHRGKLELAQELRDMVSKCEKHAHLYRKLTTNILGGCIQMVLGQIEDHRRTHRPIQIPFFDVFLRYLCQGSSEEMKKNRYWEKVEVSSNPQRASRLTDRNPKTYWESSGRAGSHFITLHMRPGVIIRQLTLLVAGEDSSYMPAWVVVCGGNSIKSVNKELNTVNVMPSASRVTLLENLTRFWPIIQIRIKRCQQGGINTRIRGLEVLGPKPTFWPVFREQLCRHTRLFYMVRAQAWSQDIAEDRRSLLHLSSRLNGALRHEQNFAERFLPDMEAAQALSKTCWEALVSPLVQNITSPDEDSTSSLGWLLDQYLGCREAAYNPQSRAAAFSSRVRRLTHLLVHVEPREAAPPVVAIPRSKGRNRIHDWSYLITRGLPSSIMKNLTRCWRSVVEEQMNKFLSASWKDDDFVPRYCERYYVLQKSSSELFGPRAAFLLAMRNGCADAVRRLPFLRAAHVKQQFARHIDQRIQGSRMGGARGMEMLAQLQRCLESVLIFSPLEIATTFEHYYQHYMADRLLSVGSSWLEGAVLEQIGPCFPSRLPQQMLQSLNVSEELQRQFHVYQLQQLDQELLKLEDTEKKIQVAHEDSGREDKSKKEEAIGEAAAVAMAEEEDQGKKEEGEEEGEGEDEEEERYYKGTMPEVCVLVVTPRFWPVASVCQMLNPATCLPAYLRGTINHYTNFYSKSQSRSSLEKEPQRRLQWTWQGRAEVQFGGQILHVSTVQMWLLLHLNNQKEVSVESLQAISELPPDVLHRAIGPLTSSRGPLDLQEQKNVPGGVLKIRDDSEEPRPRRGNVWLIPPQTYLQAEAEEGRNMEKRRNLLNCLVVRILKAHGDEGLHVDRLVYLVLEAWEKGPCPARGLVSSLGRGATCRSSDVLSCILHLLVKGTLRRHDDRPQVLYYAVPVTVMEPHMESLNPGSAGPNPPLTFHTLQIRSRGVPYASCTDNHTFSTFR | binds | 
2 | p193myc (p193 protein harboring a C-terminal myc epitope tag, from CMV-p193myc) (other, not shown: small tags and cut ends, Expressed in NIH-3T3 cells co-transfected with CMV-T-Ag; also called CMV-p193myc product) MVGELRYREFRVPLGPGLHAYPDELIRQRVGHNGHPEYQIRWLILRRGDDGDRDSTVDCKAEHILLWMSDDEIYANCHKMLGENGQVIAPSRESTEAGALDKSVLGEMETDVKSLIQRALRQLEECVGTVPPAPLLHTVHVLSAYASIEPLTGIFKDRRVVNLLMHMLSSPDYQIRWSAGRMIQALSSHDAGTRTQILLSLSQQEAIEKHLDFDSRCALLALFAQATLTEHPMSFEGVQLPQVPGRLLFSLVKRYLHVTFLLDRLNGDAGDQGAQNNFSPEELNVGRGRLELEFSMAMGTLISELVQAMRWDGASSRPESSSSSTFQPRPAQFRPYTQRFRRSRRFRPRASFASFNTYALYVRDTLRPGMRVRMLENYEEIAAGDEGQFRQSNDGVPPAQVLWDSTGHTYWVHWHMLEILGFEEDIEDVIDIEELQELGANGALSIVPPSQRWKPITQLFAEPYVVPEEEDREESENLTQAEWWELLFFIRQLSEAERLHIVDLLQDHLEEERVLDYDMLPELTVPVDLAQDLLLSLPQQLEDSALRDLFSCSVYRKYGPEVLVGHLSYPFVPGAQPNLFGANEESEAKDPPLQSASPALQRLVESLGPEGEVLVELEQALGSEAPQETEVKSCLLQLQEQPQPFLALMRSLDTSASNKTLHLTVLRILMQLVNFPEALLLPWHEAMDACVTCLRSPNTDREVLQELIFFLHRLTTTSRDYAVILNQHGARDAISKVLEKHRGKLELAQELRDMVSKCEKHAHLYRKLTTNILGGCIQMVLGQIEDHRRTHRPIQIPFFDVFLRYLCQGSSEEMKKNRYWEKVEVSSNPQRASRLTDRNPKTYWESSGRAGSHFITLHMRPGVIIRQLTLLVAGEDSSYMPAWVVVCGGNSIKSVNKELNTVNVMPSASRVTLLENLTRFWPIIQIRIKRCQQGGINTRIRGLEVLGPKPTFWPVFREQLCRHTRLFYMVRAQAWSQDIAEDRRSLLHLSSRLNGALRHEQNFAERFLPDMEAAQALSKTCWEALVSPLVQNITSPDEDSTSSLGWLLDQYLGCREAAYNPQSRAAAFSSRVRRLTHLLVHVEPREAAPPVVAIPRSKGRNRIHDWSYLITRGLPSSIMKNLTRCWRSVVEEQMNKFLSASWKDDDFVPRYCERYYVLQKSSSELFGPRAAFLLAMRNGCADAVRRLPFLRAAHVKQQFARHIDQRIQGSRMGGARGMEMLAQLQRCLESVLIFSPLEIATTFEHYYQHYMADRLLSVGSSWLEGAVLEQIGPCFPSRLPQQMLQSLNVSEELQRQFHVYQLQQLDQELLKLEDTEKKIQVAHEDSGREDKSKKEEAIGEAAAVAMAEEEDQGKKEEGEEEGEGEDEEEERYYKGTMPEVCVLVVTPRFWPVASVCQMLNPATCLPAYLRGTINHYTNFYSKSQSRSSLEKEPQRRLQWTWQGRAEVQFGGQILHVSTVQMWLLLHLNNQKEVSVESLQAISELPPDVLHRAIGPLTSSRGPLDLQEQKNVPGGVLKIRDDSEEPRPRRGNVWLIPPQTYLQAEAEEGRNMEKRRNLLNCLVVRILKAHGDEGLHVDRLVYLVLEAWEKGPCPARGLVSSLGRGATCRSSDVLSCILHLLVKGTLRRHDDRPQVLYYAVPVTVMEPHMESLNPGSAGPNPPLTFHTLQIRSRGVPYASCTDNHTFSTFR |  | binds
